Data taken from patent publication US20250333507A1 (SHANGHAI CELGEN BIO PHARMACEUTICAL, published 2025).

What was measured:
[1] = biological target: full-length human TIGIT on the cell membrane (human) (UniProt Q495A1); experiment: cell-based or functional assay
[2] = biological target: T1, recombinant IL2Rβ subunit (Sinobio) (UniProt P14784 27-239); experiment: BLI, recombinant IL2Rβ subunit
T1 construct: also called IL2β subunit
T1 sequence (looked up): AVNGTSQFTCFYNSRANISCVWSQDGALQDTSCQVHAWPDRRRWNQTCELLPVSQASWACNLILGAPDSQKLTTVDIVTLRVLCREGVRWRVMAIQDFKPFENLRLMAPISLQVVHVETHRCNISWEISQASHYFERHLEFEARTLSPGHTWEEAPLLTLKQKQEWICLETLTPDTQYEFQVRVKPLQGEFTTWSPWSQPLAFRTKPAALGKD

[3] = biological target: T2, IL2Rαγ (dimer) on 293F cells (human, UniProt P01589 22-272; P31785 23-369); experiment: flow cytometry on 293F cells expressing IL2Rαγ
T2 construct: whole, on cells
T2 sequence (looked up) 1: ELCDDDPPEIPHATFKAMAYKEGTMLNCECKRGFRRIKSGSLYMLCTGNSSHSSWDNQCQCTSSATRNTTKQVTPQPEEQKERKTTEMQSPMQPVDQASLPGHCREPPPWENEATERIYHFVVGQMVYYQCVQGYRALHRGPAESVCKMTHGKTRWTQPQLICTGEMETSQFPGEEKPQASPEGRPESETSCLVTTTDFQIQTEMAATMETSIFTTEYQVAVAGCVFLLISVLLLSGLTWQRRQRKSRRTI
T2 sequence (looked up) 2: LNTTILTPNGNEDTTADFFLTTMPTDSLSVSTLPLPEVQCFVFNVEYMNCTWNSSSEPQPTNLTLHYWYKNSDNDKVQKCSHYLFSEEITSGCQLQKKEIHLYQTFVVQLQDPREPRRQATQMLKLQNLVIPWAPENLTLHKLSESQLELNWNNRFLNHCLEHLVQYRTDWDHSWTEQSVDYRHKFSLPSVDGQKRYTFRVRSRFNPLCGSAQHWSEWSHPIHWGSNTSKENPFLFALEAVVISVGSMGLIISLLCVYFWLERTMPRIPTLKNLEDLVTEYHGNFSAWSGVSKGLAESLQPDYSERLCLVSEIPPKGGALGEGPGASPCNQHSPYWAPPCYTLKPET
Description: First, human IL2Rα, IL2Rβ, and IL2Rγ expression plasmids (Sinobio) were co-transfected into 293F cells to transiently express the following IL2R complexes: IL2Rαβγ (trimer), IL2Rαγ (dimer), and IL2Rβγ (dimer). The expression of the respective IL2R subunits on the cell membrane was detected using antibodies against IL2Rα, IL2Rβ, and IL2Rγ.
Then, the binding activity of KD5201F, KD5201E, and control protein-1 to the 293F cells expressing the two types of IL2R complexes (αγ and βγ) was detected using flow cytometry.

[4] = biological target: T3, mouse IL2R on CTLL-2 cells (mouse, UniProt P01590 22-268); experiment: cell-based or functional assay
T3 sequence (looked up): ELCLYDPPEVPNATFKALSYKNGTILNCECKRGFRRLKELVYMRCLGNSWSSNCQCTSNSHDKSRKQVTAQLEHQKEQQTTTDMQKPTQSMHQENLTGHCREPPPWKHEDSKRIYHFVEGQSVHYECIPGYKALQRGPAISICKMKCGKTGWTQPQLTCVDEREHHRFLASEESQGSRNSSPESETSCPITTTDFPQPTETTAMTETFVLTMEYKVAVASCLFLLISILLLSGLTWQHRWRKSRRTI

[5] = biological target: T4, recombinant human TIGIT (Human TIGIT His, Sino Biological, 10917-H08H) (human, UniProt Q495A1 22-138); experiment: ELISA, recombinant human TIGIT-His coated
T4 construct: range 1-138; Bought reagent; also called recombinant human TIGIT antigen; recombinant human TIGITE-HIS; not shown: C-terminal histidine tag
T4 sequence (looked up): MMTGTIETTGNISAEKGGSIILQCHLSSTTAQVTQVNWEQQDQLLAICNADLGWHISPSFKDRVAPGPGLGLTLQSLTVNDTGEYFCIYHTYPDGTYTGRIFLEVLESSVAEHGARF
Procedure: The activity of TIGIT antibody-IL2 fusion protein binding TIGIT of the present disclosure in vitro was detected using ELISA. The ELIS was conducted as follows: coated with 50 μl of NaHCO₃(pH9.6) buffer containing […] recombinant human TIGITE-HIS overnight at 4° C.; on the next day, washed twice with PBS, followed by blocking with 3% BSA, 100 μL per well; incubated at 37° C. for 1.5h, and washed with PBST for 4 times. TIGIT antibody-IL2 fusion protein was diluted in a gradient with a binding solution (TBST containing 1% BSA), and added into the blocked and washed ELISA plate (50 μl per well), and incubated at 37° C. for 2 h. After washing with PBST for 4 times, a certain proportion of diluted anti-HFC (Jackson Immuno Research) labeled with alkaline phosphatase was added to each well and incubated at 37° C. for 1.5h. Finally, after washing with PBST for 4 times, PNPP color developing solution was added and incubated at 37° C. for 10-15 min, followed by reading on a microplate reader (wavelengths 405 nm and 490 nm). Human TIGIT monoclonal antibody P03479 was used as positive control.

mouse TIGIT = biological target: T5, mouse TIGIT (mouse, UniProt P86176 29-148, limits assumed); experiment: not described
T5 sequence (looked up): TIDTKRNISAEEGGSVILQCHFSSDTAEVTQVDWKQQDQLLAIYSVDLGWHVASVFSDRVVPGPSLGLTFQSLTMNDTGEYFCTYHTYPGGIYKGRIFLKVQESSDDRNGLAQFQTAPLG

[6] = biological target: T6, full-length human TIGIT on the cell membrane (human, UniProt Q495A1 22-244); experiment: flow cytometry on Jurkat cells expressing human TIGIT
T6 construct: whole, on cells; the cell is named under assay or readout; also called CHO-K-TIGIT; CHO-TIGIT
T6 sequence (looked up): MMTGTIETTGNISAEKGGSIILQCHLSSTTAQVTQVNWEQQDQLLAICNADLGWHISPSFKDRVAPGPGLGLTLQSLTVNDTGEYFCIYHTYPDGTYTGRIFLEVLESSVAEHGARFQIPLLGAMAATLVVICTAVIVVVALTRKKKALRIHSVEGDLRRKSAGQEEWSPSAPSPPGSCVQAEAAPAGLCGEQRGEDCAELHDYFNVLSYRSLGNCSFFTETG
Procedure: The binding activity of the anti-TIGIT antibody-IL2 fusion proteins to TIGIT on the cell membrane was tested using flow cytometry. A Jurkat cell line stably expressing human TIGIT was first established. The full-length human TIGIT gene (Sinobio) was amplified by PCR and cloned into the mammalian cell expression vector pcDNA3.1 (Invitrogen), using Not I and Xba I as cloning enzymes. The TIGIT expression plasmid was transfected into Jurkat cells to construct a stable Jurkat cell line expressing TIGIT (TIGIT-Jurkat).
The flow cytometry study method for the binding of TIGIT antibody-IL2 fusion proteins to cell membrane-bound TIGIT is summarized as follows: FACS buffer (1×PBS+0.5% BSA solution) was prepared. The required number of TIGIT-Jurkat cells, about 1×10⁵ to 5×10⁵ cells per sample, was taken and incubated with TIGIT antibody-IL2 fusion protein diluted to a certain ratio in FACS buffer, approximately 100 μL, at 4° C. for 30 minutes. After washing the cells once with FACS buffer, they were resuspended in FITC-conjugated anti-human IgG (Abcam: 6854) diluted in FACS buffer and incubated at 4° C. for 30 minutes. Finally, after washing the cells with FACS buffer, they were resuspended in 200 μL of FACS buffer for analysis. The parent TIGIT antibody P03479 was used as a control.
The results were consistent with those obtained by binding recombinant TIGIT in vitro (Example 6).

[7] = biological target: T6, full-length human TIGIT on the cell …; experiment: flow cytometry on CHO-K cells expressing human TIGIT
Procedure: The flow cytometry method to study the binding of TIGIT antibodies to TIGIT protein on the cell membrane is briefly described as follows: Firstly, FACS buffer was prepared, which was a 1×PBS solution with 0.5% BSA. The required number of CHO-K-TIGIT cells, approximately 1×10⁵ to 5×10⁵ cells per sample, was taken and suspended in FACS buffer. […] The cells were incubated in a refrigerator at 4° C. for 30 minutes, washed once with FACS buffer, and then resuspended in FITC-conjugated anti-human IgG (Abcam: 6854) diluted in FACS buffer. The cells were incubated again in a refrigerator at 4° C. for 30 minutes. Finally, after washing the cells with FACS buffer, the cells were resuspended in 200 μL of FACS buffer for analysis, and subjected to detection.

[8] = biological target: T4, recombinant human TIGIT (Human TIGIT …); experiment: competition ELISA, TIGIT-His coated, competitor CD155-mFC
Procedure: To determine whether human-mouse chimeric and humanized TIGIT monoclonal antibodies can inhibit the binding between CD155 and TIGIT, an in vitro ELISA assay was conducted. Tiragolumab was used as a positive control. […] The next day, after washing twice with PBS, the wells were blocked with 3% BSA, 100 μL per well, and incubated at 37° C. for 1.5 hours, followed by washing 4 times with PBST. Gradient diluted TIGIT monoclonal antibodies and CD155-mFC (6 μg/mL) (Human CD155 (Fc Tag): Sino Biological, 10109-H02H) were mixed in equal volumes and added to the blocked and washed microplate and incubated at 37° C. for 2 hours, followed by 4 washes with PBST. Subsequently, a diluted secondary antibody HRP-conjugated anti-mFC (Jackson Immuno Research, 115-035-164) was added and incubated at 37° C. for 1.5 hours. After washing 4 times with PBST, TMB coloring solution was added, and the plate was incubated at 37° C. for 10-15 minutes before reading on a microplate reader (wavelengths 450 nm and 655 nm).
As shown, all TIGIT monoclonal antibodies could specifically block the binding between TIGIT and CD155.

Molecule: Tiragolumab (antibody)
- IFNγ release from PHA-activated PBMCs, increase over the blank [1]: 16%

B1: KD5201E, HC(DANG)-IL2mut-1/LC(ART-Ig) anti-TIGIT antibody-IL2 fusion protein (other)
heavy 1: EVQVVESGGGLVKPGGSLRLSCAASGFTFSTYAMSWVRQAPGKGLEWVAEISSGGSHTFYADTVKGRFTISRDNAKNTLYLQMNSLRAEDTAVYYCARKTLDYYALDYWGQGTTVTVSSASTKGPSVFPLAPSSKSTSGGTAALGCLVKDYFPEPVTVSWNSGALTSGVHTFPAVLQSSGLYSLSSVVTVPSSSLGTQTYICNVNHKPSNTKVDKKVEPKSCDKTHTCPPCPAPELLGGPSVFLFPPKPKDTLMISRTPEVTCVVVAVSHEDPEVKFNWYVDGVEVHNAKTKPREEQYGSTYRVVSVLTVLHQDWLNGKEYKCKVSNKALPAPIEKTISKAKGQPREPQVYTLPPSRKEMTKNQVSLTCLVKGFYPSDIAVEWESNGQPENNYKTTPPVLDSDGSFFLYSKLTVDKSRWQQGNVFSCSVMHEALHNRYTQKSLSLSPGGGGGSGGGGSGGGGSAPTSSSTKKTQLQLEHLLLDLQMILNGINNYKNPKLTRMLTAKFYMPKKATELKHLQCLEEELKPLEEVLNLAQSKNFHFDPRDVVSNINVFVLELKGSETTFMCEYADETATIVEFLNRWITFCQSIISTLT
heavy 2: EVQVVESGGGLVKPGGSLRLSCAASGFTFSTYAMSWVRQAPGKGLEWVAEISSGGSHTFYADTVKGRFTISRDNAKNTLYLQMNSLRAEDTAVYYCARKTLDYYALDYWGQGTTVTVSSASTKGPSVFPLAPSSKSTSGGTAALGCLVKDYFPEPVTVSWNSGALTSGVHTFPAVLQSSGLYSLSSVVTVPSSSLGTQTYICNVNHKPSNTKVDKKVEPKSCDKTHTCPPCPAPELLGGPSVFLFPPKPKDTLMISRTPEVTCVVVAVSHEDPEVKFNWYVDGVEVHNAKTKPREEQYGSTYRVVSVLTVLHQDWLNGKEYKCKVSNKALPAPIEKTISKAKGQPREPQVYTLPPSREEMTKNQVSLTCLVKGFYPSDIAVEWESNGQPENNYKTTPPVLDSDGSFFLYSKLTVDKSRWQQGNVFSCSVMHEALHNHYTQESLSLSPG
light: DVQITQSPSYLSASVGDRVTINCRASKSISKYLAWYQQKPGKAPKLLIYSGSRLQSGIPSRFSGSGYGTDFTLTISSLQPEDFATYYCQQHNEYPWTFGGGTKLEIKRTVAAPSVFIFPPSDEQLKSGTASVVCLLNNFYPREAKVQWKVDNALQSGNSQESVTEQDSKDSTYSLSSTLTLSKADYEKHKVYACEVTHQGLSSPVTKSFNRGEC
notes: IL2mut-1 = F42A/L80F/R81D/L85V/I86V/I92F on the C-terminus of one heavy chain; Fc with D265A/N297G; also called HC1(DANG)-IL2mut/LC1(ART-Ig); HC1-IL2mut/LC1 (ART-Ig)
- Kd [2]: ~8.2 nM
- binding result [3]: binds
- EC50 of stimulating CTLL-2 cell growth (CCK-8) [4]: 0.0153 µg/mL

B2: humanized anti-human TIGIT monoclonal antibody P03479 (7103-07 huVH2VL1) (antibody, V domains shown)
VH: EVQVVESGGGLVKPGGSLRLSCAASGFTFSTYAMSWVRQAPGKGLEWVAEISSGGSHTFYADTVKGRFTISRDNAKNTLYLQMNSLRAEDTAVYYCARKTLDYYALDYWGQGTTVTVSS
VL: DVQITQSPSYLSASVGDRVTINCRASKSISKYLAWYQQKPGKAPKLLIYSGSRLQSGIPSRFSGSGYGTDFTLTISSLQPEDFATYYCQQHNEYPWTFGGGTKLEIK
notes: The constant region is described as IgG1 gamma in the embodiments; also called parent TIGIT antibody P03479
- EC50 [5]: 0.0184 µg/mL
- binding result (mouse TIGIT): no binding
- EC50 [6]: 0.0315 µg/mL
- EC50 [7]: 0.144 µg/mL
- IC50 [8]: 0.107 µg/mL
